Laboratory results reported in article PMC9436389 (Frontiers in Immunology, 2022).

Legend:
[1] = molecular target: EBOV GP[change] (unstabilised, ectodomain-only Ebola virus glycoprotein without mucin-like domain) (Ebola virus (Mayinga 1976 strain)) (UniProt Q05320); assay: SEC
[2] = molecular target: NiV F[change] (recombinant NiV sF glycoprotein in its postfusion conformation) (Nipah virus); assay: SEC

Substance | stoichiometry N [1] | stoichiometry N [2]
EBOV GP[change] (unstabilised, ectodomain-only Ebola virus glycoprotein without mucin-like domain) (from UniProt Q05320) (domain or fragment) | 3 | 
NiV F[change] (recombinant NiV sF glycoprotein in its postfusion conformation) (domain or fragment) |  | 3
